Test results reported in publication PMC8092709 (Journal of Virology, 2021).

B1: human aminopeptidase N (hAPN), residues 66 to 967 (receptor)
chain: DQSKAWNRYRLPNTLKPDSYRVTLRPYLTPNDRGLYVFKGSSTVRFTCKEATDVIIIHSKKLNYTLSQGHRVVLRGVGGSQPPDIDKTELVEPTEYLVVHLKGSLVKDSQYEMDSEFEGELADDLAGFYRSEYMEGNVRKVVATTQMQAADARKSFPCFDEPAMKAEFNITLIHPKDLTALSNMLPKGPSTPLPEDPNWNVTEFHTTPKMSTYLLAFIVSEFDYVEKQASNGVLIRIWARPSAIAAGHGDYALNVTGPILNFFAGHYDTPYPLPKSDQIGLPDFNAGAMENWGLVTYRENSLLFDPLSSSSSNKERVVTVIAHELAHQWFGNLVTIEWWNDLWLNEGFASYVEYLGADYAEPTWNLKDLMVLNDVYRVMAVDALASSHPLSTPASEINTPAQISELFDAISYSKGASVLRMLSSFLSEDVFKQGLASYLHTFAYQNTIYLNLWDHLQEAVNNRSIQLPTTVRDIMNRWTLQMGFPVITVDTSTGTLSQEHFLLDPDSNVTRPSEFNYVWIVPITSIRDGRQQQDYWLIDVRAQNDLFSTSGNEWVLLNLNVTGYYRVNYDEENWRKIQTQLQRDHSAIPVINRAQIINDAFNLASAHKVPVTLALNNTLFLIEERQYMPWEAALSSLSYFKLMFDRSEVYGPMKNYLKKQVTPLFIHFRNNTNNWREIPENLMDQYSEVNAISTACSNGVPECEEMVSGLFKQWMENPNNNPIHPNLRSTVYCNAIAQGGEEEWDFAWEQFRNATLVNEADKLRAALACSKELWILNRYLSYTLNPDLIRKQDATSTIISITNNVIGQGLVWDFVQSNWKKLFNDYGGGSFSFSNLIQAVTRRFSTEYELQQLEQFKKDNEETGFGSGTRALEQALEKTKANIKWVKENKEVVLQWFTENSK

How the values were obtained:
[1] = biological target: human aminopeptidase N (hAPN), residues 66 to 967 (human) (UniProt P15144); assay: SPR
[2] = biological target: T1, HCoV-229E S glycoprotein ectodomain trimer (S-trimer) (HCoV-229E, UniProt P15423 16-1116); assay: SPR
T1 sequence: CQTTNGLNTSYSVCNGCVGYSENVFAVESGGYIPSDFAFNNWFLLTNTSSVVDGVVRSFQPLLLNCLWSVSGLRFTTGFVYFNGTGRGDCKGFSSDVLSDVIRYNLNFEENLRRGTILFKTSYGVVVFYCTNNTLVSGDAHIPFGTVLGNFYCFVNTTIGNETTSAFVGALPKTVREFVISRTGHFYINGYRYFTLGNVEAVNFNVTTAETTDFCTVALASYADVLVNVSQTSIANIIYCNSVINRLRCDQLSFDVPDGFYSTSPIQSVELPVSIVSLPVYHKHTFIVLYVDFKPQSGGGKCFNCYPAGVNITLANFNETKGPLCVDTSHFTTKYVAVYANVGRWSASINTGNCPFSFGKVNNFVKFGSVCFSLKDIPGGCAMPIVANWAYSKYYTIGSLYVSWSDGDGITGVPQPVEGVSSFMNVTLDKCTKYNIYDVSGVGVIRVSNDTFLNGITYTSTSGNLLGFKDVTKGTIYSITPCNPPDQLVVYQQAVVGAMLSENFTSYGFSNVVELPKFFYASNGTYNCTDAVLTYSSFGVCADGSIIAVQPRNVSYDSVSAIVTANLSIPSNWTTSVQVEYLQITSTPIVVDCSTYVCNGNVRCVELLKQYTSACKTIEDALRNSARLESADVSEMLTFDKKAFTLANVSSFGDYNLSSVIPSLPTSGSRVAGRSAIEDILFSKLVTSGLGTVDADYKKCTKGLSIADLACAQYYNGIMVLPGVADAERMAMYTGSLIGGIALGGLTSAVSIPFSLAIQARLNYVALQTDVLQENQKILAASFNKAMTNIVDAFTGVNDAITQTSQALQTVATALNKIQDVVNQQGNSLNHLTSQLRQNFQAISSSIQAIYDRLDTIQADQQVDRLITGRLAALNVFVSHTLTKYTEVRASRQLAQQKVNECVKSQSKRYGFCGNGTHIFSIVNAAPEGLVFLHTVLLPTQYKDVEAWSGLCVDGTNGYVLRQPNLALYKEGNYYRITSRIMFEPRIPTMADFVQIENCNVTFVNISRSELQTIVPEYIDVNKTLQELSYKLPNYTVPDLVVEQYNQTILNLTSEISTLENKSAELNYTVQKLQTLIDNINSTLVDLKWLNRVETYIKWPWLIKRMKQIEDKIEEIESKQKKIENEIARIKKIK

| Molecule | Kd [1] | koff [1] | kon [1] | Kd [2] | koff [2] | kon [2] |
| --- | --- | --- | --- | --- | --- | --- |
| HCoV-229E NTD-deficient S-trimer (S-trimer/ΔNTD) (from UniProt P15423 16-1116) (domain or fragment) | 2.12 nM | 4.1e-05 s⁻¹ | 19400 M⁻¹ s⁻¹ | – | – | – |
| B1 | – | – | – | 3.29 nM | 0.000121 s⁻¹ | 36700 M⁻¹ s⁻¹ |
